This note sets out measurements from patent US20130344053A1, “Methods of Modifying Insulin Signaling Using Biliverdin Reductase (BVR) and BVR Derived Peptides” (University of Rochester, priority 2010, published 2013).

What all share (type): biochemical
The target in assay [1] is T1, insulin receptor kinase (IRK) (Homo sapiens, UniProt P06213).
T1 construct: GST-hBVR fusion protein and the 48 kDa cytoplasmic domain of the β-subunit of IRK; purchased Biomol International (Plymouth, Pa.)
Nature of the assay: BVR phosphorylation by the insulin receptor tyrosine kinase (IRK). The note with it: for reduction of extent of BVR phosphorylation by IRK compared with wtBVR: tyrosine point mutant as IRK substrate, 2 h at 30° C.; for BVR phosphorylation by IRK (mutant as substrate): tyrosine point or double mutant as IRK substrate. Here is the method:
FIGS. 7A-B illustrate BVR as a substrate for insulin receptor kinase. […] 10 μg purified wtBVR was incubated in 100 μl kinase assay buffer (pH 8.0) containing 0.1 μg IRK, 10 μM ATP, and 20 μCi [^32P]-ATP at 25° C. up to 4 h. The reaction was terminated by the addition of Laemmli buffer at different points of time as indicated. Samples were separated using 8% SDS-PAGE gel and transferred onto PVDF filter, and phosphorylated protein bands were visualized by autoradiography. […] From left to right lane 1, wtBVR plus IRK in the presence of 50 mM EDTA (pH 8.0); lane 2, wtBVR plus IRK; lane 3, wtBVR in the absence of IRK. The reaction mixtures were subjected to SDS-PAGE electrophoresis and transferred onto a polyvinylidene fluoride (“PVDF”) filter. The blot was immuno-stained with anti-phosphotyrosine antibodies and ECL detection system was used to visualize phosphorylated tyrosines. […] In FIG. 8A the Y^198 residue of BVR is phosphorylated by IRK. Purified wtBVR and Y^198 mutant BVR were incubated with IRK at 30° C. for 2 h. Samples were subjected to SDS-PAGE electrophoresis and processed as described in FIG. 8B. FIG. 8B is a time course of Y^198 mutant BVR phosphorylation by IRK. A purified preparation of human BVR that carried Y^198 mutation was incubated with IRK for up to 3 h as described in FIG. 7A. Samples taken at the indicated time-points were analyzed for detection of phosphorylated proteins as above. […] Subsequently, samples were subjected to SDS-PAGE, stained with Coomassie blue and visualized bands were excised and used for measurement of radioactive content. The experiments were repeated three times. […] The indicated double mutants of BVR were used as substrates for IRK and analysis was carried out as in FIG. 8A. FIGS. 10A-B illustrate that autophosphorylation of BVR is an Mn^+2 dependant kinase reaction. […] The effects of different metal ions (30 mM MnCl2, 20 mM MgCl2, 20 mM CaCl2, 20 mM Zn acetate) and their combinations were analyzed as indicated in the text. […] The reactions were carried out in HEPES buffer (pH 8.0) in the presence of 20 mM MgCl2 as described in the Examples. Phosphorylation of BVR by IRK was examined using GST-hBVR fusion protein and the 48 kDa cytoplasmic domain of the β-subunit of IRK. BVR (5 μg) was incubated in 50 μl of IRK kinase buffer containing 50 mM HEPES (pH 8.0), 20 mM MgCl2, 1 mM DTT in the presence of 0.05 μg IRK and 10 μM ATP labeled with 10 μCi [γ-^32P]-ATP. The reaction was started with the addition of labeled ATP and incubated for 2-4 h. Reactions were terminated by addition of Laemmli sample buffer and boiled for 3 min. Samples were subjected to 8% SDS-PAGE and transferred to PVDF membranes for autoradiography.

In another assay the target is T2, BVR (Homo sapiens, UniProt P53004, A154S/E160D/G155D).
T2 construct: made in house; host or cells: E. coli (pGEX 4T-2/hBVR)
T2 sequence (P53004 3-296 A154S/G155D/E160D): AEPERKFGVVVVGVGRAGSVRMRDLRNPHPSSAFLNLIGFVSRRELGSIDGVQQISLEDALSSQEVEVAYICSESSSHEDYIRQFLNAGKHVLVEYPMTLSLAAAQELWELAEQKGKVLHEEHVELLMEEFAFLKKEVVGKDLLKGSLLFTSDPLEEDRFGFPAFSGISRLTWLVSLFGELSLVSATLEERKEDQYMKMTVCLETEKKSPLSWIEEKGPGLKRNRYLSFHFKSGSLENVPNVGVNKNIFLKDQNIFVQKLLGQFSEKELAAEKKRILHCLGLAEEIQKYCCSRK
Nature of the assay: Phosphorylation of IRS-1 peptides by BVR. The note with it: peptide as substrate for BVR kinase. As to the method:
(§1) To detect autophosphorylation of BVR, GST-hBVR of wild type (wt) and mutant variants were incubated in 50 mM HEPES buffer (pH 8.4) in the presence of 30 mM MnCl2 and 1 mM DTT for 2 h at 30° C. The reaction was started with the addition of 10 μM ATP labeled with 10 μCi [γ-^32P]-ATP and was stopped with the addition of Laemmli sample buffer. Samples were boiled for 3 min and applied to a 8% SDS-PAGE gels, transferred to a PVDF membrane, and then visualized by autoradiography. To measure kinase activity, GST-BVR (5 μg) was incubated in 5 μl kinase buffer containing 50 mM HEPES buffer (pH 8.4), 20 mM MgCl2, 30 mM MnCl2, 1 mM DTT and 10 μM ATP labeled with 10 μCi [γ-^32P]-ATP in the presence of 5 μg substrates: IRS-1 or Raytide or poly glu/tyr (4:1) for 2 h at 30° C. The reaction was started with the addition of ATP and terminated by adding 120 μl 10% H3PO4. 100 μl aliquots were directly transferred to P81 Whatman filters which were subsequently washed extensively in 0.75% phosphoric acid at room temperature. Finally, the filters were submerged in acetone for 5 min, dried, and retained counts were measured using a Beckman LS 6500 liquid scintillation counter (Beckman Coulter, Fullerton, Calif.).
The following experiments were conducted to determine whether IRS is a substrate for serine kinase activity of BVR or its tyrosine kinase activity. […]

The subject of a further assay is human BVR. As to the kind of experiment: BVR autophosphorylation. The note with it: pH 8.4, 30 mM MnCl2, 2 h at 30° C. Here is the method: In FIG. 9A, effect of tyrosine mutations of BVR on its autophosphorylation is shown. Human wtBVR and BVR with mutations in tyrosine were used in the experiment to determine autophosphorylation of BVR. The reactions were performed as described in the Examples. FIG. 9B is a graph showing that BVR tyrosine kinase activity was checked by incubating 5 μg purified BVR with 5 μg Raytide in 50 μl kinase buffer containing 10 μM labeled ATP for 2 h at 30° C. The aliquots of the reaction were transferred onto P81 Whatman filters and radioactivity due to phosphorylation was measured using a scintillation counter.
FIGS. 10A-B illustrate that autophosphorylation of BVR is an Mn^+2 dependant kinase reaction. […] The effects of different metal ions (30 mM MnCl2, 20 mM MgCl2, 20 mM CaCl2, 20 mM Zn acetate) and their combinations were analyzed as indicated in the text. […] Phosphorylation of wtBVR by IRK in the presence of tyrosine kinase inhibitor genestein (200 μM); DMSO was used as the vehicle for genestein and was included in the control reaction mixture. The reactions were carried out in HEPES buffer (pH 8.0) in the presence of 20 mM MgCl2 as described in the Examples.
as §1, with “To measure kinase activity, GST-BVR (5 μg) was incubated in 5 μl kinase buffer containing 50 mM HEPES buffer (pH 8.4), 20 mM MgCl2, 30 mM MnCl2, 1 mM DTT and 10 μM ATP labeled with 10 μCi [γ-^32P]-ATP in the presence of 5 μg substrates: IRS-1 or Raytide or poly glu/tyr (4:1) for 2 h at 30° C.” left out

T1 sequence (P06213 980-1382 limits assumed): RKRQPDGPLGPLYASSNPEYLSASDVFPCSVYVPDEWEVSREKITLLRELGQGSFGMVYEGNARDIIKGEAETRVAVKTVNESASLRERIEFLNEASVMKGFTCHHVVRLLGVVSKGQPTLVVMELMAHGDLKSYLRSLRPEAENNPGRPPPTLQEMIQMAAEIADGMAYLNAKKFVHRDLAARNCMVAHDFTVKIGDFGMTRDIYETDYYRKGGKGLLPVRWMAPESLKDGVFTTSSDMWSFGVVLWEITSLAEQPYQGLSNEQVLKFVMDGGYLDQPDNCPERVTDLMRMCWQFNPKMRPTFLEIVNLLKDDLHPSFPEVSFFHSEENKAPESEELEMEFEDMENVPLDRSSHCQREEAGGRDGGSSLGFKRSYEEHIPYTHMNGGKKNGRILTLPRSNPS

With `O=C(O)CN(CCN(CC(=O)O)CC(=O)O)CC(=O)O` [EDTA, reference compound], the “phosphorylation of BVR by IRK in presence of EDTA” value in assay [1] (50 mM EDTA (pH 8.0), 30° C., 2 h) is on record as “abolished phosphorylation of BVR by IRK”.
For the molecule `O=c1c(-c2ccc(O)cc2)coc2cc(O)cc(O)c12` [Genestein, reference compound], the “BVR phosphorylation mediated by IRK in presence of PTK inhibitor” value in assay [1] (genestein 200 μM, HEPES pH 8.0, 20 mM MgCl2) is recorded as “significantly inhibited BVR phosphorylation mediated by IRK”.
As to “Arg-Thr-Glu-Ser^307-Ile-Thr-Ala-Thr-Ser^312-Pro-Ala-Ser^315-Met-Val-Gly-Gly-Lys-Pro (RTESITATSPASMVGGKP; Biliverdin reductase peptide) [second IRS-1 peptide (#2), IRS-1 peptide containing S^307, S^312, and S^315]”, in the assay with BVR, the “phosphorylation of IRS-1 peptide by BVR” value amounted to 1198±230 cpm.
Same read-out and setting: with “Lys-Lys-His-Ala-Asp-Asp-Gly-Ala-Met-Pro-Met-Ser^312-Pro-Gly-Val-Ala (KKHADDGAMPMSPGVA; Biliverdin reductase peptide) [mutant IRS-1 peptide (#1), mutant IRS-1 peptide without tyrosine, only S^616 maintained]” the figure was 1049±78 cpm.

B1: Y^228: human BVR point mutant NRYLS to NRFLS (protein, UniProt P53004 3-296, looked up, variant Y228F)
Biliverdin reductase A: AEPERKFGVVVVGVGRAGSVRMRDLRNPHPSSAFLNLIGFVSRRELGSIDGVQQISLEDALSSQEVEVAYICSESSSHEDYIRQFLNAGKHVLVEYPMTLSLAAAQELWELAEQKGKVLHEEHVELLMEEFAFLKKEVVGKDLLKGSLLFTAGPLEEERFGFPAFSGISRLTWLVSLFGELSLVSATLEERKEDQYMKMTVCLETEKKSPLSWIEEKGPGLKRNRFLSFHFKSGSLENVPNVGVNKNIFLKDQNIFVQKLLGQFSEKELAAEKKRILHCLGLAEEIQKYCCSRK
On to B1, for which the “reduction of extent of BVR phosphorylation by IRK compared with wtBVR” value in assay [1] is given as 40%. Moreover, the “autophosphorylation of BVR (mutants)” value with human BVR is “did not result in significant changes in autophosphorylation of BVR”.

B2: Y^198 plus Y^291: human BVR double mutant DQFMK and QKFCC (protein, UniProt P53004 3-296, looked up, variant Y198F Y291F)
Biliverdin reductase A: AEPERKFGVVVVGVGRAGSVRMRDLRNPHPSSAFLNLIGFVSRRELGSIDGVQQISLEDALSSQEVEVAYICSESSSHEDYIRQFLNAGKHVLVEYPMTLSLAAAQELWELAEQKGKVLHEEHVELLMEEFAFLKKEVVGKDLLKGSLLFTAGPLEEERFGFPAFSGISRLTWLVSLFGELSLVSATLEERKEDQFMKMTVCLETEKKSPLSWIEEKGPGLKRNRYLSFHFKSGSLENVPNVGVNKNIFLKDQNIFVQKLLGQFSEKELAAEKKRILHCLGLAEEIQKFCCSRK
For the molecule B2, the “BVR phosphorylation by IRK (mutant as substrate)” value in assay [1] is “little or no phosphorylation was detected”.

B3: Y^291: human BVR point mutant QKYCC to QKFCC (protein, UniProt P53004 3-296, looked up, variant Y291F)
Biliverdin reductase A: AEPERKFGVVVVGVGRAGSVRMRDLRNPHPSSAFLNLIGFVSRRELGSIDGVQQISLEDALSSQEVEVAYICSESSSHEDYIRQFLNAGKHVLVEYPMTLSLAAAQELWELAEQKGKVLHEEHVELLMEEFAFLKKEVVGKDLLKGSLLFTAGPLEEERFGFPAFSGISRLTWLVSLFGELSLVSATLEERKEDQYMKMTVCLETEKKSPLSWIEEKGPGLKRNRYLSFHFKSGSLENVPNVGVNKNIFLKDQNIFVQKLLGQFSEKELAAEKKRILHCLGLAEEIQKFCCSRK
B3: the “reduction of extent of BVR phosphorylation by IRK compared with wtBVR” value in assay [1] was 49%. Further, the “autophosphorylation of BVR (mutants)” value in the assay on human BVR is “did not result in significant changes in autophosphorylation of BVR”.

B4: Y^198 plus Y^228: human BVR double mutant DQFMK and NRFLS (protein, UniProt P53004 3-296, looked up, variant Y198F Y228F)
Biliverdin reductase A: AEPERKFGVVVVGVGRAGSVRMRDLRNPHPSSAFLNLIGFVSRRELGSIDGVQQISLEDALSSQEVEVAYICSESSSHEDYIRQFLNAGKHVLVEYPMTLSLAAAQELWELAEQKGKVLHEEHVELLMEEFAFLKKEVVGKDLLKGSLLFTAGPLEEERFGFPAFSGISRLTWLVSLFGELSLVSATLEERKEDQFMKMTVCLETEKKSPLSWIEEKGPGLKRNRFLSFHFKSGSLENVPNVGVNKNIFLKDQNIFVQKLLGQFSEKELAAEKKRILHCLGLAEEIQKYCCSRK
B4: the “BVR phosphorylation by IRK (mutant as substrate)” value in assay [1] is “little or no phosphorylation was detected”.
